Results as given in patent US20080102072A1.
pKd: −log10 of the molar value.

What was measured:
[1] = biological target: human IFNAR1, membrane receptor on cells (U266 human myeloma cells; Hela and A549 cells in the functional assays) (human) (UniProt P17181); assay: cell-based or functional assay
[2] = biological target: human IFNAR1, membrane receptor on cells (U266 human myeloma cells; Hela and A549 cells in the functional assays) (human) (UniProt P17181); assay: flow cytometry on U266 cells, fluoresceinated mAb 1 µg/100 µl, no soluble hIFNAR1
[3] = biological target: human IFNAR1, membrane receptor on cells (U266 human myeloma cells; Hela and A549 cells in the functional assays) (human) (UniProt P17181); assay: flow cytometry on U266 cells, F-mAb preincubated with competitor: 10 µg soluble wild type hIFNAR1-IgG
[4] = biological target: hIFNAR1 ECD-IgG fusion protein (immunoadhesin, pRK5 hIFNAR1-IgG clone 53.65), wild type (human); assay: competitive radioimmunoprecipitation with 125I-hIFNAR1-IgG and unlabeled hIFNAR1-IgG, Scatchard analysis
[5] = biological target: IFNAR1-IgG multiple alanine mutant 1, residues 19-25 (RWNRSDE to AWNASAA) (human); assay: capture ELISA, mutant IFNAR1-IgG captured by goat anti-hIgG-Fc, mAb 10 µg/ml; OD as % of wild type IFNAR1-IgG
[6] = biological target: IFNAR1-IgG multiple alanine mutant 10, residues 383-388 (DEKLNK to AAALNA) (human); assay: as above
[7] = biological target: IFNAR1-IgG multiple alanine mutant 2, residues 69-74 (EEIKLR to AAIALA) (human); assay: as above
[8] = biological target: IFNAR1-IgG multiple alanine mutant 3, residues 76-80 (RAEKE to AAAAA) (human); assay: as above
[9] = biological target: IFNAR1-IgG multiple alanine mutant 4, residues 103-111 (… to …) (human); assay: as above
[10] = biological target: IFNAR1-IgG multiple alanine mutant 5, residues 148-152 (EERIE to AAAIA) (human); assay: as above
[11] = biological target: IFNAR1-IgG multiple alanine mutant 6, residues 157-162 (RHKIYK to AAAIYA) (human); assay: as above
[12] = biological target: IFNAR1-IgG multiple alanine mutant 7, residues 244-249 (HLYKWK to ALYAWA) (human); assay: as above
[13] = biological target: IFNAR1-IgG multiple alanine mutant 8, residues 291-298 (EEIKFDTE to AAIAFATA) (human); assay: as above
[14] = biological target: IFNAR1-IgG multiple alanine mutant 9, residues 352-359 (ERKIIEKK to AAAIIAAA) (human); assay: as above
[15] = biological target: IFNAR1-IgG single alanine mutant D296A (human); assay: capture ELISA, single alanine mutant IFNAR1-IgG captured by goat anti-hIgG-Fc; OD as % of wild type IFNAR1-IgG
[16] = biological target: IFNAR1-IgG single alanine mutant E291A (human); assay: as above
[17] = biological target: IFNAR1-IgG single alanine mutant E292A (human); assay: as above
[18] = biological target: IFNAR1-IgG single alanine mutant E298A (human); assay: as above
[19] = biological target: IFNAR1-IgG single alanine mutant E69A (human); assay: as above
[20] = biological target: IFNAR1-IgG single alanine mutant E70A (human); assay: as above
[21] = biological target: IFNAR1-IgG single alanine mutant H244A (human); assay: as above
[22] = biological target: IFNAR1-IgG single alanine mutant K247A (human); assay: as above
[23] = biological target: IFNAR1-IgG single alanine mutant K249A (human); assay: as above
[24] = biological target: IFNAR1-IgG single alanine mutant K294A (human); assay: as above
[25] = biological target: IFNAR1-IgG single alanine mutant K72A (human); assay: as above
[26] = biological target: IFNAR1-IgG single alanine mutant R74A (human); assay: as above
[27] = biological target: human IFNAR1, membrane receptor on cells (U266 human myeloma cells; Hela and A549 cells in the functional assays) (human) (UniProt P17181); assay: flow cytometry on U266 cells, F-mAb preincubated with competitor: 10 µg soluble hIFNAR1-IgG Mutant #7 (244-249)
[28] = biological target: human IFNAR1, membrane receptor on cells (U266 human myeloma cells; Hela and A549 cells in the functional assays) (human) (UniProt P17181); assay: flow cytometry on U266 cells, F-mAb preincubated with competitor: 10 µg soluble hIFNAR1-IgG Mutant #8 (291-298)
[29] = biological target: human IFNAR1, membrane receptor on cells (U266 human myeloma cells; Hela and A549 cells in the functional assays) (human) (UniProt P17181); assay: flow cytometry on U266 cells, fluoresceinated control IgG, no soluble hIFNAR1

Sequence of UniProt P17181 (P17181 28-557): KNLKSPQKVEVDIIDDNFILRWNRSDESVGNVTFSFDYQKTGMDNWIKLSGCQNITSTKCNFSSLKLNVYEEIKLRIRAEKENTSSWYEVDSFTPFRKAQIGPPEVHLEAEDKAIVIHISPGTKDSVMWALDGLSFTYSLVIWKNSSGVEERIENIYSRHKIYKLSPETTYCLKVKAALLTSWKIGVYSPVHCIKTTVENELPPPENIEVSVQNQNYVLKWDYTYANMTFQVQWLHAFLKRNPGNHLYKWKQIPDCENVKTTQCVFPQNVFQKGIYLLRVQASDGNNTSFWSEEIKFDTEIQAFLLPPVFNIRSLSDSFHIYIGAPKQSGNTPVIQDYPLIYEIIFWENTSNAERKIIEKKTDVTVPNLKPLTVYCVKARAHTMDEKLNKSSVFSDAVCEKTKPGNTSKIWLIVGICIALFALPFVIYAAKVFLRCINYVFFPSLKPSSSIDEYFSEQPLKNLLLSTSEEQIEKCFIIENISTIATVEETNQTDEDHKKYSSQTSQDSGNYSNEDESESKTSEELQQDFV
Sequence of IFNAR1-IgG single alanine mutant K249A (human) (chain, as listed by the source K249A K249A limits assumed): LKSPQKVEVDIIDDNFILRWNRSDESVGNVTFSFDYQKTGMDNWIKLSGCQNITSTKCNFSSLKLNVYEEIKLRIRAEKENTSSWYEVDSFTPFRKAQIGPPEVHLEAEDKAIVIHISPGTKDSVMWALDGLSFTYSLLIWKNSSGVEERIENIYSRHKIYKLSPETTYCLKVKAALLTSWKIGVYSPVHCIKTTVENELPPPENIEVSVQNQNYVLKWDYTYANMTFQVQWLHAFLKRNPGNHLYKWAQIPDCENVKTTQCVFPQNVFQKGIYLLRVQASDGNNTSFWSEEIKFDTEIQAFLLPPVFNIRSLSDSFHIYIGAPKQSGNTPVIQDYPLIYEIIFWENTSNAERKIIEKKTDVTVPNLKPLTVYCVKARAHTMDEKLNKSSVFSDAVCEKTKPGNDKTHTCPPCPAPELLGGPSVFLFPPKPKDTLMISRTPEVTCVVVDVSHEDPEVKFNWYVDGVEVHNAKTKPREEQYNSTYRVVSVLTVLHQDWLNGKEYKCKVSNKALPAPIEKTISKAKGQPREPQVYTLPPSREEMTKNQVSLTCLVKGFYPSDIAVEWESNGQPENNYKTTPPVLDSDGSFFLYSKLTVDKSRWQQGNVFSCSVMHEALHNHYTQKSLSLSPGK
Sequence of IFNAR1-IgG single alanine mutant H244A (human) (chain, as listed by the source H244A H244A limits assumed): as the sequence (chain, as listed by the source K249A K249A limits assumed) above, with H244A, A249K counted along it
Sequence of IFNAR1-IgG single alanine mutant E298A (human) (chain, as listed by the source E298A E298A limits assumed): as the sequence (chain, as listed by the source K249A K249A limits assumed) above, with A249K, E298A counted along it
Sequence of IFNAR1-IgG single alanine mutant K247A (human) (chain, as listed by the source K247A K247A limits assumed): as the sequence (chain, as listed by the source K249A K249A limits assumed) above, with K247A, A249K counted along it
Sequence of IFNAR1-IgG single alanine mutant K294A (human) (chain, as listed by the source K294A K294A limits assumed): as the sequence (chain, as listed by the source K249A K249A limits assumed) above, with A249K, K294A counted along it
Sequence of IFNAR1-IgG multiple alanine mutant 1, residues 19-25 (RWNRSDE to AWNASAA) (human) (chain, as listed by the source mutant limits assumed): as the sequence (chain, as listed by the source K249A K249A limits assumed) above, with R19A, R22A, D24A, E25A, A249K counted along it
Sequence of IFNAR1-IgG multiple alanine mutant 3, residues 76-80 (RAEKE to AAAAA) (human) (chain, as listed by the source mutant limits assumed): as the sequence (chain, as listed by the source K249A K249A limits assumed) above, with R76A, E78A, K79A, E80A, A249K counted along it

## anti-hIFNAR1 monoclonal antibody 4A7 (hybridoma ATCC HB 12132)
[1]
  EC50 of mAb neutralizing the anti-viral cytopathic effect of 10 units/ml IFNα1 on A549 cells (EMC virus): 10 µg/mL
  EC50 of mAb neutralizing the anti-viral cytopathic effect of 10 units/ml IFNα2/1 on A549 cells (EMC virus): 20 µg/mL
  EC50 of mAb neutralizing the anti-viral cytopathic effect of 10 units/ml IFNα2 on A549 cells (EMC virus): 10 µg/mL
  EC50 of mAb neutralizing the anti-viral cytopathic effect of 10 units/ml IFNα5 on A549 cells (EMC virus): 6 µg/mL
  EC50 of mAb neutralizing the anti-viral cytopathic effect of 10 units/ml IFNα8 on A549 cells (EMC virus): 3 µg/mL
  EC50 of mAb neutralizing the anti-viral cytopathic effect of 10 units/ml IFNβ on A549 cells (EMC virus): > 30 µg/mL
[2]
  Mean Fluorescence Intensity: 9.49
[3]
  Mean Fluorescence Intensity: 2.45
[4]
  pKd: 10.28
[5]
  % Wild type binding of mAbs: 95%
[6]
  % Wild type binding of mAbs: 103%
[7]
  % Wild type binding of mAbs: 0%
[8]
  % Wild type binding of mAbs: 92%
[9]
  % Wild type binding of mAbs: 80%
[10]
  % Wild type binding of mAbs: 90%
[11]
  % Wild type binding of mAbs: 100%
[12]
  % Wild type binding of mAbs: 106%
[13]
  % Wild type binding of mAbs: 96%
[14]
  % Wild type binding of mAbs: 101%
[15]
  % Wild type binding of mAbs: 53%
[16]
  % Wild type binding of mAbs: 58%
[17]
  % Wild type binding of mAbs: 58%
[18]
  % Wild type binding of mAbs: 60%
[19]
  % Wild type binding of mAbs: 69%
[20]
  % Wild type binding of mAbs: 85%
[21]
  % Wild type binding of mAbs: 96%
[22]
  % Wild type binding of mAbs: 86%
[23]
  % Wild type binding of mAbs: 73%
[24]
  % Wild type binding of mAbs: 69%
[25]
  % Wild type binding of mAbs: 91%
[26]
  % Wild type binding of mAbs: 30%
[27]
  Mean Fluorescence Intensity: 2.95
[28]
  Mean Fluorescence Intensity: 3.16

## control IgG (antibody)
[29]
  Mean Fluorescence Intensity: 2.99
